This note sets out measurements from article PMC8571082 (2021).

To fix the notation:
B1: Mint3NT, N-terminal fragment (1–214) of Mint3 [human] / factor inhibiting HIF-1 (FIH-1), full-length [human] (parent complex)
chain 1: MDFPTISRSPSGPPAMDLEGPRDILVPSEDLTPDSQWDPMPGGPGSLSRMELDESSLQELVQQFEALPGDLVGPSPGGAPCPLHIATGHGLASQEIADAHGLLSAEAGRDDLLGLLHCEECPPSQTGPEEPLEPAPRLLQPPEDPDEDSDSPEWVEGASAEQEGSRSSSSSPEPWLETVPLVTPEEPPAGAQSPETLASYPAPQEVPGPCDHED
chain 2: MAATAAEAVASGSGEPREEAGALGPAWDESQLRSYSFPTRPIPRLSQSDPRAEELIENEEPVVLTDTNLVYPALKWDLEYLQENIGNGDFSVYSASTHKFLYYDEKKMANFQNFKPRSNREEMKFHEFVEKLQDIQQRGGEERLYLQQTLNDTVGRKIVMDFLGFNWNWINKQQGKRGWGQLTSNLLLIGMEGNVTPAHYDEQQNFFAQIKGYKRCILFPPDQFECLYPYPVHHPCDRQSQVDFDNPDYERFPNFQNVVGYETVVGPGDVLYIPMYWWHHIESLLNGGITITVNFWYKGAPTPKRIEYPLKAHQKVAIMRNIEKMLGEALGNPQEVGPLLNTMIKGRYN

The variants in the assay derive from B1. The assay can be described thus: ITC; measured three times for each FIH-1 mutant.
Turning to chain 2 Y71A, the dG was -8.6 kcal/mol. The result for chain 2 E250A reads -9 kcal/mol; that for chain 2 K75A, -8.8 kcal/mol; that for chain 2 E79A, -8.7 kcal/mol. The result for chain 2 N171A reads -8.7 kcal/mol; that for chain 2 E29A, -9.1 kcal/mol; that for chain 2 D248A, -9.3 kcal/mol.
